Paper PMC6420115 (Science (New York, N.y.), 2018)
Changes are numbered by the printed parent chain. Where two headings read alike, the source gives them in different places.

Experiments:
minimal NANP3 peptide [1] = target: T1, minimal NANP3 peptide (Plasmodium falciparum (isolate NF54).)
T1 chain: NANPNANPNANP

[2] = target: T2, NANP5 peptide (NANP 5-mer peptide of the PfCSP repeat) (Plasmodium falciparum (isolate NF54).); experiment: ITC; details: both partners purified
T2 construct: source: bought: Alpha Diagnostic International
T2 chain: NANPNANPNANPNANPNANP

[3] = target: T3, NANP3 peptide (minimal NANP repeat peptide) (Plasmodium falciparum (isolate NF54).); experiment: ITC; details: both partners purified
T3 construct: source: bought: PSL GmbH, Heidelberg
T3 chain: NANPNANPNANP

[4] = target: T4, full length PfCSP (NF54 strain) (Plasmodium falciparum (isolate NF54)., UniProt P19597); experiment: BLI; details: both partners purified
T4 construct: also called NF54 PfCSP; circumsporozoite protein; source: HEK293F, transient expression, purified (HisTrap Ni/NTA, SEC)
T4 sequence (P19597 19-374): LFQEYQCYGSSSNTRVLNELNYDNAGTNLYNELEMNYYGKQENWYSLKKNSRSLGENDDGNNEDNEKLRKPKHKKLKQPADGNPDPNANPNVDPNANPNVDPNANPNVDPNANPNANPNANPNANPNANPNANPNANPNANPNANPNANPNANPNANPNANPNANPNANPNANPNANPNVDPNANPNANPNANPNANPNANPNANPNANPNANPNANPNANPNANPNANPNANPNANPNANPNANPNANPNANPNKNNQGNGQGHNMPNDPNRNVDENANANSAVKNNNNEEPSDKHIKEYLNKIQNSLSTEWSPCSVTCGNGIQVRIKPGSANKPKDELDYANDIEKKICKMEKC

[5] = target: T5, full-length PfCSP with 38 NANP repeats (Plasmodium falciparum (isolate NF54)., UniProt P19597); experiment: SEC-MALS; 1210 Fab–PfCSP complex; molar mass from two measurements; details: both partners purified
T5 construct: also called circumsporozoite protein; NF54
T5 sequence (P19597 19-374): as above

minimal NANP3 peptide [6] = target: T1, minimal NANP3 peptide; experiment: SPR; independent NANP3 SPR affinity measurements of original and mutated antibodies; who was immobilised is not given in the source; details: both partners purified

B1: 2163 (antibody, V domains shown)
VH: QVQLVESGGGVVQPGRSLRLSCAASGFTFSSYGMHWVRQAPGKGLEWVAVIWYDGSNKYYADSVKGRFTISRDNSKNTLYLQMNSLRAEDTAVYYCARVQTTTGGGSCCPFDYWGQGTLVTVSS
VL: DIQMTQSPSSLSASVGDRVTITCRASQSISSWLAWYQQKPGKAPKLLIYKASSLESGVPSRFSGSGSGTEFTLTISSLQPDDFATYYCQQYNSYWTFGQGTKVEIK
binding result (minimal NANP3 peptide [1]): binds

B2: 2163_H.S31_Nmut (antibody, V domains shown)
VH: B1 VH with S31N
VL: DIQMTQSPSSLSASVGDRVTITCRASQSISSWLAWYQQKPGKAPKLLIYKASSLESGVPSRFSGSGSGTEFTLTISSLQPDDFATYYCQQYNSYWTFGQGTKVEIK
binding result (minimal NANP3 peptide [1]): binds

B3: 2163_H.N56_Kmut (antibody, V domains shown)
VH: B1 VH with N57K
VL: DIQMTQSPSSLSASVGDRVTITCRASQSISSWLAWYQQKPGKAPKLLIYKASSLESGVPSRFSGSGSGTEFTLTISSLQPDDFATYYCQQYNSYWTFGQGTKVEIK
binding result (minimal NANP3 peptide [1]): binds

B4: 2163_H.V50_Imut (antibody, V domains shown)
VH: B1 VH with V50I
VL: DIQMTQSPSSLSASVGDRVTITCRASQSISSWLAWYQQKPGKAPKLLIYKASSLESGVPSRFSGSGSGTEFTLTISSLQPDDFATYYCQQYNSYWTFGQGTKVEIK
binding result (minimal NANP3 peptide [1]): binds

B5: 1210_H.N31_Srev (antibody, V domains shown)
VH: QVQLVESGGGVVQPGRSLRLSCAASGFTFSSYGMHWVRQAPGKGLEWVAVIWYDGSKKYYADSVKGRFTISRDNSKNTLYLQMNSLRAEDTAVYYCARVRDSSDYYGDAFDIWGQGTMVTVSS
VL: DIQMTQSPSTLSASVGDRVTITCRASQSISSWLAWYQQKPGKAPKLLIYKASNLESGVPLRFSGSGSGTEFTLTISSLQPDDFATYYCQQYNNYWTFGQGTKVEIK
binding result (minimal NANP3 peptide [1]): binds

B6: 1210 Fab (recombinant Fab for ITC) (Fab, V domains shown)
VH: B5 VH with S31N
VL: B5 VL
notes: source: HEK293F, transiently expressed, purified (KappaSelect, SEC)
stoichiometry N [2]: 1.8
stoichiometry N [3]: 0.73

B7: 1210 IgG (antibody, V domains shown)
VH: B5 VH with S31N
VL: B5 VL
notes: IgG1; source: HEK293F, purified (Protein G Sepharose)
Kd [4]: < 0.001 nM

B8: 1210 antigen-binding fragment (Fab) (Fab, V domains shown)
VH: B5 VH with S31N
VL: B5 VL
stoichiometry N [5]: ~12 Fabs per PfCSP

B9: 1210_H.K56_Nrev_K.N93_Srev Fab (recombinant Fab for ITC) (Fab, V domains shown)
VH: B5 VH with S31N, K57N
VL: B5 VL with N93S
notes: as for B6
stoichiometry N [2]: 1.7
stoichiometry N [3]: 0.94

B10: 2163_KN (antibody, V domains shown)
VH: B1 VH with N57K
VL: B5 VL with T10S, N53S, L60S
binding result (minimal NANP3 peptide [1]): binds

B11: 1210_K. N93_S^rev (antibody, V domains shown)
VH: B5 VH with S31N
VL: B5 VL with N93S
binding result (minimal NANP3 peptide [6]): binds

B12: 1210 H.D100Ymut_K.N92Ymut Fab (recombinant Fab for ITC) (Fab, V domains shown)
VH: B5 VH with S31N, D104Y
VL: B5 VL with N92Y
notes: as for B6
stoichiometry N [2]: 2.1
stoichiometry N [3]: 0.88

B13: 1210 germline antibody Fab (recombinant Fab for ITC) (Fab, V domains shown)
VH: B5 VH with K57N
VL: not shown
notes: as for B6
stoichiometry N [2]: 1.9
stoichiometry N [3]: 0.92

B14: 1210_H.K56_N^rev (antibody, V domains shown)
VH: B5 VH with S31N, K57N
VL: B5 VL
binding result (minimal NANP3 peptide [6]): binds

B15: 1210_YY IgG (1210 H.D100Ymut_K.N92Ymut) (antibody, V domains shown)
VH: B5 VH with S31N, D104Y
VL: B5 VL with N92Y
notes: as for B7
Kd [4]: 0.66 nM
